Results: article PMC8720176
Numbering of substitutions follows the chain as printed. Where two headings read alike, the source gives them in different places.

Experiments:
Assay in all cases: X-ray crystallography
Δ30-EXO5 WT [1] = target: T1, Δ30-EXO5 WT (Homo sapiens, UniProt Q9H790 31-373, del1-30)
T1 sequence: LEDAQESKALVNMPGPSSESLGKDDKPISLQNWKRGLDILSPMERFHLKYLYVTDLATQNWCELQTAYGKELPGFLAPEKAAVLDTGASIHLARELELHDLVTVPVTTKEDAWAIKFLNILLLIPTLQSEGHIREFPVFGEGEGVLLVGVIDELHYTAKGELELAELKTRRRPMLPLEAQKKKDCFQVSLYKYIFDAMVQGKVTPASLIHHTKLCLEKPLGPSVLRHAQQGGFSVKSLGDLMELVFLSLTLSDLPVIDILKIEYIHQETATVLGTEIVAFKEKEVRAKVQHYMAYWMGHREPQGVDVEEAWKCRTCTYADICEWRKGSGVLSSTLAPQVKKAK

T88E-Δ30-EXO5 = target: T2, T88E-Δ30-EXO5 (Homo sapiens, UniProt Q9H790 31-373, T88E;del1-30)
T2 sequence: T1 sequence with T58E

Δ30-EXO5 WT [2] = target: T1, Δ30-EXO5 WT; remark: listed apart in the source

## ATTGCTGAAGGG (ssDNA) [12mer]
Δ30-EXO5 WT [1]
  binding result: binds

## TTTTTTTTTTTT (ssDNA, 3' thiol modifier C3 S-S) [dT12]
T88E-Δ30-EXO5
  binding result: binds
Δ30-EXO5 WT [2]
  binding result: binds
